Kd data for two substances are collected here from PMC7615710.

One assay concerns the target PP1α (Homo sapiens) (UniProt P62136). The note with it: cited from earlier work.
For assay [1], the target named is Bin1 SH3 domain (513-593) (human) (UniProt O00499). Briefly: ITC; 450 or 300 uM NS5A PRR peptide (syringe) titrated to 30 uM ASPP CTD or SH3 domain (cell), 12 °C, 25 mM HEPES pH 7.5, 150 mM NaCl, 500 uM TCEP; 25 steps of 10 ul; AB hetero association model (SEDPHAT).
Chain of Bin1 SH3 domain (513-593) (human) (O00499 513-593): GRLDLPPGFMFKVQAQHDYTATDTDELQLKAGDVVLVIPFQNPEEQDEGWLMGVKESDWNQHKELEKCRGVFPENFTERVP

Chain of ASPP2 SH3 (Q13625 1054-1122): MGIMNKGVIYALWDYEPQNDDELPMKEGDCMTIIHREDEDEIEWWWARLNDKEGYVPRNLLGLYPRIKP
Chain of PP1α (Homo sapiens) (P62136 2-330): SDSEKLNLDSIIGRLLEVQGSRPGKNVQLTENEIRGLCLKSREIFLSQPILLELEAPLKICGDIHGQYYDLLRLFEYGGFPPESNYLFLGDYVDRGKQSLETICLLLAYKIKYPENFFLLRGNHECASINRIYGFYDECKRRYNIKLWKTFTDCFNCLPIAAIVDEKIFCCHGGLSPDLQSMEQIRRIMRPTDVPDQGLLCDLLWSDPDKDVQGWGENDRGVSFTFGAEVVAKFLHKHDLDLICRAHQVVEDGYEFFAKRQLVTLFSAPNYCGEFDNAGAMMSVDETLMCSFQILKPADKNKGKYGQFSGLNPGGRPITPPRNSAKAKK

In the case of ASPP2 SH3 (from UniProt Q13625), in the assay with PP1α (Homo sapiens), the Kd was 140 nM.

The substance “HCV [1a.1] NS5A PRR peptide (peptide; other documents disagree on this pair)” showed a Kd in assay [1] of 30.3 nM.

The Kd is the equilibrium constant for the complex coming apart.
